Laboratory results taken from article PMC1868598.

Legend:
[1] = Triton X-100 lysis, sucrose gradient flotation, COS-1; details: glycan lost; control: wild type
[2] = confocal colocalisation with GFP-Rab4, transfected HeLa/COS-1; details: glycan lost; control: wild type

B1: human ClC-6 (hClC-6a): AAA-hClC-6 (protein)
parent chain: MAGCRGSLCCCCRWCCCCGERETRTPEELTILGETQEEEDEILPRKDYESLDYDRCINDPYLEVLETMDNKKGRRYEAVKWMVVFAIGVCTGLVGLFVDFFVRLFTQLKFGVVQTSVEECSQKGCLALSLLELLGFNLTFVFLASLLVLIEPVAAGSGIPEVKCYLNGVKVPGIVRLRTLLCKVLGVLFSVAGGLFVEKEGPMIHSGSVVGAGLPQFQSISLRKIQFNFPYFRSDRDKRDFVSAGAAAGVAAAFGAPIGGTLFSLEEGSSFWNQGLTWKVLFCSMSATFTLNFFRSGIQFGSWGSFQLPGLLNFGEFKCSDSDKKCHLWTAMDLGFFVVMGVIGGLLGATFNCLNKRLAKYRMRNVHPKPKLVRVLESLLVSLVTTVVVFVASMVLGECRQMSSSSQIGNDSFQLQVTEDVNSSIKTFFCPNDTYNDMATLFFNPQESAILQLFHQDGTFSPVTLALFFVLYFLLACWTYGISVPSGLFVPSLLCGAAFGRLVANVLKSYIGLGHIYSGTFALIGAAAFLGGVVRMTISLTVILIESTNEITYGLPIMVTLMVAKWTGDFFNKGIYDIHVGLRGVPLLEWETEVEMDKLRASDIMEPNLTYVYPHTRIQSLVSILRTTVHHAFPVVTENRGNEKEFMKGNQLISNNIKFKKSSILTRAGEQRKRSQSMKSYPSSELRNMCDEHIASEEPAEKEDLLQQMLERRYTPYPNLYPDQSPSEDWTMEERFRPLTFHGLILRSQLVTLLVRGVCYSESQSSASQPRLSYAEMAEDYPRYPDIHDLDLTLLNPRMIVDVTPYMNPSPFTVSPNTHVSQVFNLFRTMGLRHLPVVNAVGEIVGIITRHNLTYEFLQARLRQHYQTI
- other: detergent-resistant membrane association [1]: no change
- localisation_or_trafficking [2]: no change
